The text below walks through data of article PMC7351759, “Nuclear moonlighting of cytosolic glyceraldehyde-3-phosphate dehydrogenase regulates Arabidopsis response to heat stress” (Nature Communications, 2020).

Common to all, as to details: both partners purified
The target of the assay “GAPC2-Flag (cytosolic …)” is T1, GAPC2-Flag (cytosolic glyceraldehyde-3-phosphate dehydrogenase 2) (Arabidopsis, UniProt Q9FX54 1-338).
T1 construct: Cytosolic glyceraldehyde-3-phosphate dehydrogenase GAPC2 of Arabidopsis; CaMV-35S promoter; source: Arabidopsis overexpressing GAPC2-Flag, purified with an anti-Flag antibody and Protein A-agarose
Description: co-IP; GAPC1-Flag or GAPC2-Flag purified from Arabidopsis mixed with purified NF-YC10-6xHis; IP with anti-Flag antibody and Protein A-agarose, overnight at 4 °C, buffer A (20 mM NaH2PO4 pH 8.0, 150 mM NaCl); blot with anti-6xHis antibody.

The assay “GAPC1-Flag (cytosolic …)” concerns the target T2, GAPC1-Flag (cytosolic glyceraldehyde-3-phosphate dehydrogenase 1) (Arabidopsis, UniProt P25858 1-338).
T2 construct: Cytosolic glyceraldehyde-3-phosphate dehydrogenase GAPC1 of Arabidopsis; CaMV-35S promoter; source: Arabidopsis overexpressing GAPC1-Flag, purified with an anti-Flag antibody and Protein A-agarose
The assay is described as above.

The target of another assay is T3, GAPC2-6xHis (Arabidopsis, UniProt Q9FX54 1-338).
T3 construct: Cytosolic glyceraldehyde-3-phosphate dehydrogenase GAPC2 of Arabidopsis; source: purified
Put plainly: co-IP; purified GAPC2-6xHis or GAPC2mut’-6xHis mixed with NF-YC10-6xHis-STREP; IP with anti-STREP antibody, blot with anti-6xHis antibody.

T2 sequence (P25858 whole entry): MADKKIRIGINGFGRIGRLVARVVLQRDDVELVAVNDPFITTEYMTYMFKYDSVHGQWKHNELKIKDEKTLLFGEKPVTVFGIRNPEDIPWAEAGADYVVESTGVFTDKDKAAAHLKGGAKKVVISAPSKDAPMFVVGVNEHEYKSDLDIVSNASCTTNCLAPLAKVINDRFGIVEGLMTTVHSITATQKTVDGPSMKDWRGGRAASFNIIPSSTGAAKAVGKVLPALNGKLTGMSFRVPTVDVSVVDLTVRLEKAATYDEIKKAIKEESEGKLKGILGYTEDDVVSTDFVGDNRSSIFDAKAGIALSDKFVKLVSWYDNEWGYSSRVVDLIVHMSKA
T3 sequence (Q9FX54 whole entry): as the sequence (P25858 whole entry) above, with N61H, I65V, E68D, A92G, Y98F, A227S, L274M counted along it
T1 sequence (Q9FX54 whole entry): as the sequence (P25858 whole entry) above, with N61H, I65V, E68D, A92G, Y98F, A227S, L274M counted along it

B1: NF-YC10-6xHis (natural protein, Arabidopsis, UniProt Q58CM8 1-195, looked up)
chain: MRRPKSSHVRMEPVAPRSHNTMPMLDQFRSNHPETSKIEGVSSLDTALKVFWNNQREQLGNFAGQTHLPLSRVRKILKSDPEVKKISCDVPALFSKACEYFILEVTLRAWMHTQSCTRETIRRCDIFQAVKNSGTYDFLIDRVPFGPHCVTHQGVQPPAEMILPDMNVPIDMDQIEEENMMEERSVGFDLNCDLQ
notes: Nuclear factor Y subunit C10, cloned from Arabidopsis; also called recombinant NF-YC10
Regarding B1, the binding result with GAPC2-Flag (cytosolic …) and with GAPC1-Flag (cytosolic …) was “binds” in each case.

B2: NF-YC10-6xHis-STREP (natural protein, Arabidopsis, UniProt Q58CM8 1-195, looked up)
chain: MRRPKSSHVRMEPVAPRSHNTMPMLDQFRSNHPETSKIEGVSSLDTALKVFWNNQREQLGNFAGQTHLPLSRVRKILKSDPEVKKISCDVPALFSKACEYFILEVTLRAWMHTQSCTRETIRRCDIFQAVKNSGTYDFLIDRVPFGPHCVTHQGVQPPAEMILPDMNVPIDMDQIEEENMMEERSVGFDLNCDLQ
notes: Nuclear factor Y subunit C10 of Arabidopsis
B2: in the assay with GAPC2-6xHis, the binding result is “binds”.
